{"source": "paper PMC12102759", "about": "(2025)", "parents": {"B1": {"name": "PAIP1 peptide 124-139 (Polyadenylate-binding protein-interacting protein 1), 16-mer library wild type / PABPC1 PABC (PABPC1 PABC domain, residues 544-623) (parent complex)", "chain 1": "LMSKLSVNAPEFYPSG", "chain 2": "PLTASMLASAPPQEQKQMLGERLFPLIQAMHPTLAGKITGMLLEIDNSELLHMLESPESLRSKVDEAVAVLQAHQAKEAA"}, "B2": {"name": "CBL peptide 538-553 (E3 ubiquitin-protein ligase CBL), 16-mer library wild type / YES SH3 (YES1 SH3 domain, residues 90-152) (parent complex)", "chain 1": "TLRDLPPPPPPDRPYS", "chain 2": "not shown"}}}
{"variants_of": "B1", "assay": "proteomic peptide phage display deep mutational scan (ProP-PD DMS): M13 P8 16-mer library selected against immobilised GST-tagged bait for four days (rounds), NGS of the eluted pools per day and pseudo-replica; bait immobilised on MaxiSorp plates (10 µg), library pre-cleared on GST, 2 h binding at 4 °C, five washes; one round per day, days 1-4; value from days 2 and 3"}
{"variant": "chain 1 S15V", "screen value": "0.00767 average fractional NGS count over selection days 2 and 3 (reads of this peptide / all reads for the bait, averaged over …"}
{"variant": "chain 1 Y13A", "screen value": "0.001 average fractional NGS count over selection days 2 and 3 (reads of this peptide / all reads for the bait, averaged over …"}
{"variant": "chain 1 V7A", "screen value": "0.00224 average fractional NGS count over selection days 2 and 3 (reads of this peptide / all reads for the bait, averaged over …"}
{"variant": "chain 1 S3D", "screen value": "0.000994 average fractional NGS count over selection days 2 and 3 (reads of this peptide / all reads for the bait, averaged over …"}
{"variant": "chain 1 S3W", "screen value": "0.00081 average fractional NGS count over selection days 2 and 3 (reads of this peptide / all reads for the bait, averaged over …"}
{"variant": "chain 1 S3L", "screen value": "0.000356 average fractional NGS count over selection days 2 and 3 (reads of this peptide / all reads for the bait, averaged over …"}
{"variant": "chain 1 S3V", "screen value": "0.00074 average fractional NGS count over selection days 2 and 3 (reads of this peptide / all reads for the bait, averaged over …"}
{"variant": "chain 1 F12Y", "screen value": "0.00127 average fractional NGS count over selection days 2 and 3 (reads of this peptide / all reads for the bait, averaged over …"}
{"variant": "chain 1 P14Q", "screen value": "0.000256 average fractional NGS count over selection days 2 and 3 (reads of this peptide / all reads for the bait, averaged over …"}
{"variant": "chain 1 P14A", "screen value": "0.0008 average fractional NGS count over selection days 2 and 3 (reads of this peptide / all reads for the bait, averaged over …"}
{"variant": "chain 1 G16V", "screen value": "0.0229 average fractional NGS count over selection days 2 and 3 (reads of this peptide / all reads for the bait, averaged over …"}
{"variant": "chain 1 G16N", "screen value": "0.000134 average fractional NGS count over selection days 2 and 3 (reads of this peptide / all reads for the bait, averaged over …"}
{"variant": "chain 1 G16K", "screen value": "0.000565 average fractional NGS count over selection days 2 and 3 (reads of this peptide / all reads for the bait, averaged over …"}
{"variant": "chain 1 G16Y", "screen value": "0.00314 average fractional NGS count over selection days 2 and 3 (reads of this peptide / all reads for the bait, averaged over …"}
{"variant": "chain 1 G16D", "screen value": "0.000205 average fractional NGS count over selection days 2 and 3 (reads of this peptide / all reads for the bait, averaged over …"}
{"variant": "chain 1 M2N", "screen value": "0.00156 average fractional NGS count over selection days 2 and 3 (reads of this peptide / all reads for the bait, averaged over …"}
{"variant": "chain 1 M2K", "screen value": "0.000358 average fractional NGS count over selection days 2 and 3 (reads of this peptide / all reads for the bait, averaged over …"}
{"variant": "chain 1 K4D", "screen value": "0.000813 average fractional NGS count over selection days 2 and 3 (reads of this peptide / all reads for the bait, averaged over …"}
{"variant": "chain 1 K4R", "screen value": "0.000924 average fractional NGS count over selection days 2 and 3 (reads of this peptide / all reads for the bait, averaged over …"}
{"variant": "chain 1 N8E", "screen value": "0.000334 average fractional NGS count over selection days 2 and 3 (reads of this peptide / all reads for the bait, averaged over …"}
{"variant": "chain 1 N8T", "screen value": "0.00351 average fractional NGS count over selection days 2 and 3 (reads of this peptide / all reads for the bait, averaged over …"}
{"variant": "chain 1 E11Y", "screen value": "0.000125 average fractional NGS count over selection days 2 and 3 (reads of this peptide / all reads for the bait, averaged over …"}
{"variant": "chain 1 E11D", "screen value": "0.000612 average fractional NGS count over selection days 2 and 3 (reads of this peptide / all reads for the bait, averaged over …"}
{"variant": "chain 1 E11A", "screen value": "0.00172 average fractional NGS count over selection days 2 and 3 (reads of this peptide / all reads for the bait, averaged over …"}
{"variant": "chain 1 P10K", "screen value": "0.000696 average fractional NGS count over selection days 2 and 3 (reads of this peptide / all reads for the bait, averaged over …"}
{"variant": "chain 1 L5W", "screen value": "0.000754 average fractional NGS count over selection days 2 and 3 (reads of this peptide / all reads for the bait, averaged over …"}
{"variant": "chain 1 L5M", "screen value": "0.0192 average fractional NGS count over selection days 2 and 3 (reads of this peptide / all reads for the bait, averaged over …"}
{"variants_of": "B2", "assay": "proteomic peptide phage display deep mutational scan (ProP-PD DMS): M13 P8 16-mer library selected against immobilised GST-tagged bait for four days (rounds), NGS of the eluted pools per day and pseudo-replica; bait immobilised on MaxiSorp plates (10 µg), library pre-cleared on GST, 2 h binding at 4 °C, five washes; one round per day, days 1-4; value from days 2 and 3"}
{"variant": "chain 1 D4V", "screen value": "0.00269 average fractional NGS count over selection days 2 and 3 (reads of this peptide / all reads for the bait, averaged over …"}
{"variant": "chain 1 D4N", "screen value": "0.00132 average fractional NGS count over selection days 2 and 3 (reads of this peptide / all reads for the bait, averaged over …"}
{"variant": "chain 1 D4L", "screen value": "0.000198 average fractional NGS count over selection days 2 and 3 (reads of this peptide / all reads for the bait, averaged over …"}
{"variant": "chain 1 P8L", "screen value": "0.000561 average fractional NGS count over selection days 2 and 3 (reads of this peptide / all reads for the bait, averaged over …"}
{"variant": "chain 1 P8A", "screen value": "9.08e-05 average fractional NGS count over selection days 2 and 3 (reads of this peptide / all reads for the bait, averaged over …"}
{"variant": "chain 1 D12S", "screen value": "0.000329 average fractional NGS count over selection days 2 and 3 (reads of this peptide / all reads for the bait, averaged over …"}
{"variant": "chain 1 D12N", "screen value": "0.000102 average fractional NGS count over selection days 2 and 3 (reads of this peptide / all reads for the bait, averaged over …"}
{"variant": "chain 1 D12Y", "screen value": "0.00156 average fractional NGS count over selection days 2 and 3 (reads of this peptide / all reads for the bait, averaged over …"}
{"variant": "chain 1 D12I", "screen value": "0.00442 average fractional NGS count over selection days 2 and 3 (reads of this peptide / all reads for the bait, averaged over …"}
{"variant": "chain 1 P6M", "screen value": "0.000156 average fractional NGS count over selection days 2 and 3 (reads of this peptide / all reads for the bait, averaged over …"}
{"variant": "chain 1 P10V", "screen value": "0.00306 average fractional NGS count over selection days 2 and 3 (reads of this peptide / all reads for the bait, averaged over …"}
{"variant": "chain 1 P10T", "screen value": "0.00196 average fractional NGS count over selection days 2 and 3 (reads of this peptide / all reads for the bait, averaged over …"}
{"variant": "chain 1 P14Y", "screen value": "0.00118 average fractional NGS count over selection days 2 and 3 (reads of this peptide / all reads for the bait, averaged over …"}
{"variant": "chain 1 P14M", "screen value": "0.00532 average fractional NGS count over selection days 2 and 3 (reads of this peptide / all reads for the bait, averaged over …"}
{"variant": "chain 1 P14T", "screen value": "0.0012 average fractional NGS count over selection days 2 and 3 (reads of this peptide / all reads for the bait, averaged over …"}
{"variant": "chain 1 L5Q", "screen value": "0.000137 average fractional NGS count over selection days 2 and 3 (reads of this peptide / all reads for the bait, averaged over …"}
{"variant": "chain 1 L2Q", "screen value": "0.00095 average fractional NGS count over selection days 2 and 3 (reads of this peptide / all reads for the bait, averaged over …"}
{"variant": "chain 1 L2G", "screen value": "0.000674 average fractional NGS count over selection days 2 and 3 (reads of this peptide / all reads for the bait, averaged over …"}
{"variant": "chain 1 L2K", "screen value": "0.0014 average fractional NGS count over selection days 2 and 3 (reads of this peptide / all reads for the bait, averaged over …"}
{"variant": "chain 1 L2Y", "screen value": "0.00467 average fractional NGS count over selection days 2 and 3 (reads of this peptide / all reads for the bait, averaged over …"}
{"variant": "chain 1 P11I", "screen value": "0.00017 average fractional NGS count over selection days 2 and 3 (reads of this peptide / all reads for the bait, averaged over …"}
{"variant": "chain 1 Y15K", "screen value": "0.000227 average fractional NGS count over selection days 2 and 3 (reads of this peptide / all reads for the bait, averaged over …"}
{"variant": "chain 1 Y15S", "screen value": "0.000415 average fractional NGS count over selection days 2 and 3 (reads of this peptide / all reads for the bait, averaged over …"}
{"variant": "chain 1 Y15G", "screen value": "0.000388 average fractional NGS count over selection days 2 and 3 (reads of this peptide / all reads for the bait, averaged over …"}
{"variant": "chain 1 Y15A", "screen value": "0.00482 average fractional NGS count over selection days 2 and 3 (reads of this peptide / all reads for the bait, averaged over …"}
{"variant": "chain 1 Y15H", "screen value": "0.0004 average fractional NGS count over selection days 2 and 3 (reads of this peptide / all reads for the bait, averaged over …"}
{"variant": "chain 1 Y15E", "screen value": "9.17e-05 average fractional NGS count over selection days 2 and 3 (reads of this peptide / all reads for the bait, averaged over …"}
{"variant": "chain 1 S16G", "screen value": "0.000561 average fractional NGS count over selection days 2 and 3 (reads of this peptide / all reads for the bait, averaged over …"}
{"variant": "chain 1 S16E", "screen value": "0.000858 average fractional NGS count over selection days 2 and 3 (reads of this peptide / all reads for the bait, averaged over …"}
{"variant": "chain 1 S16R", "screen value": "0.000301 average fractional NGS count over selection days 2 and 3 (reads of this peptide / all reads for the bait, averaged over …"}
{"variant": "chain 1 S16W", "screen value": "0.00897 average fractional NGS count over selection days 2 and 3 (reads of this peptide / all reads for the bait, averaged over …"}
{"variant": "chain 1 S16F", "screen value": "0.00399 average fractional NGS count over selection days 2 and 3 (reads of this peptide / all reads for the bait, averaged over …"}
{"variant": "chain 1 S16V", "screen value": "0.00134 average fractional NGS count over selection days 2 and 3 (reads of this peptide / all reads for the bait, averaged over …"}
{"variant": "chain 1 S16T", "screen value": "0.000743 average fractional NGS count over selection days 2 and 3 (reads of this peptide / all reads for the bait, averaged over …"}
{"variant": "chain 1 P7Q", "screen value": "0.000151 average fractional NGS count over selection days 2 and 3 (reads of this peptide / all reads for the bait, averaged over …"}
{"variant": "chain 1 P7F", "screen value": "0.000149 average fractional NGS count over selection days 2 and 3 (reads of this peptide / all reads for the bait, averaged over …"}
{"variant": "chain 1 P7S", "screen value": "0.00158 average fractional NGS count over selection days 2 and 3 (reads of this peptide / all reads for the bait, averaged over …"}
{"variant": "chain 1 P7E", "screen value": "0.00022 average fractional NGS count over selection days 2 and 3 (reads of this peptide / all reads for the bait, averaged over …"}
{"variant": "chain 1 P7Y", "screen value": "0.000234 average fractional NGS count over selection days 2 and 3 (reads of this peptide / all reads for the bait, averaged over …"}
{"variant": "chain 1 R13N", "screen value": "0.000641 average fractional NGS count over selection days 2 and 3 (reads of this peptide / all reads for the bait, averaged over …"}
{"variant": "chain 1 R13Y", "screen value": "0.000779 average fractional NGS count over selection days 2 and 3 (reads of this peptide / all reads for the bait, averaged over …"}
{"variant": "chain 1 R13Q", "screen value": "0.000164 average fractional NGS count over selection days 2 and 3 (reads of this peptide / all reads for the bait, averaged over …"}
{"variant": "chain 1 R13M", "screen value": "0.000309 average fractional NGS count over selection days 2 and 3 (reads of this peptide / all reads for the bait, averaged over …"}
{"variant": "chain 1 R13L", "screen value": "0.00161 average fractional NGS count over selection days 2 and 3 (reads of this peptide / all reads for the bait, averaged over …"}
{"variant": "chain 1 R3E", "screen value": "0.000121 average fractional NGS count over selection days 2 and 3 (reads of this peptide / all reads for the bait, averaged over …"}
{"variant": "chain 1 R3Y", "screen value": "0.000386 average fractional NGS count over selection days 2 and 3 (reads of this peptide / all reads for the bait, averaged over …"}
{"variant": "chain 1 R3H", "screen value": "0.000385 average fractional NGS count over selection days 2 and 3 (reads of this peptide / all reads for the bait, averaged over …"}
{"variant": "chain 1 P9T", "screen value": "0.000558 average fractional NGS count over selection days 2 and 3 (reads of this peptide / all reads for the bait, averaged over …"}
